This data set deals with T1, HY5 (LONG HYPOCOTYL 5) (Solanum lycopersicum, UniProt Q9SM50 1-158).
T1 sequence: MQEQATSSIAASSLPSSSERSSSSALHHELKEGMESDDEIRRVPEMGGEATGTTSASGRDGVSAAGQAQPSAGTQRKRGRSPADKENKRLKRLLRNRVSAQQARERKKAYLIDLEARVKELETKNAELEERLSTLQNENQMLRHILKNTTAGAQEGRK
As to the kind of experiment: EMSA; no GSNO; LightShift Chemiluminescent EMSA Kit, 20 min at room temperature, 6% native polyacrylamide gel; buffer, salt and pH not stated. Particulars: protein: recombinant; tags: His (pET-32a fusion); chain copies: 2; label: biotin 3' end; blunt.

B1: PORC-wt probe (dsDNA)
DNA 1: CAAAATGCAACACGTGATGTATGAAT
DNA 2: ATTCATACATCACGTGTTGCATTTTG
B1: the binding result was “binds”.

B2: PSY2-wt probe (dsDNA)
DNA 1: CTGTGATTTACACGTGTCCTCTTTAT
DNA 2: ATAAAGAGGACACGTGTAAATCACAG
Consider B2, for which the binding result is recorded as “binds”.

These data come from PMC9181159, “High Nitric Oxide Concentration Inhibits Photosynthetic Pigment Biosynthesis by Promoting the Degradation of Transcription Factor HY5 in Tomato”.
